# B1: E6: wild-type HPV16 E6 oncoprotein stably expressed in HEK293T cells (protein, UniProt P03126 1-158, looked up)
# chain: MHQKRTAMFQDPQERPRKLPQLCTELQTTIHDIILECVYCKQQLLRREVYDFAFRDLCIVYRDGNPYAVCDKCLKFYSKISEYRHYCYSLYGTTLEQQYNKPLCDLLIRCINCQKPLCPEEKQRHLDKKQRFHNIRGRWTGRCMSCCRSSRTRRETQL
# modifications: full-length
# notes: wild-type HPV16 E6 oncoprotein stably expressed in HEK293T cells
# Columns and labels:
# Assay type in all cases: cell-based, human
# [1] = tested on: HEK293T cells; experiment: RT-qPCR of mRNA levels in stable cell lines; conditions: source data of Suppl Figure 4 B, stable HEK293T cell line; for DLG1 relative mRNA level / GFP relative mRNA level / MAGI1 relative mRNA level / RPLP0 relative mRNA level / SCRIB relative mRNA level / SNTB2 relative mRNA level / SNX27 relative mRNA level / SYNJ2BP relative mRNA level / TAX1BP3 relative mRNA level / p53 relative mRNA level: IRES control line about 1
# Protocol: Cells were plated on 6-well plates. When they reached confluency, RNA was isolated by using Qiagen RNeasy Mini kit (#74104). On-column DNase digestion was done by using Qiagen RNase-Free DNase Set (#79254). 2 μg total RNA per sample was transcribed to cDNA by using SuperScript IV kit (Invitrogen, #18091050) with random hexamer primers (Thermo Fisher #SO142) according to standard protocol. For qPCR, primers were designed with the help of Primer Blast (NCBI NIH, https://www.ncbi.nlm.nih.gov/tools/primer-blast/) choosing primers which recognize all common alternative transcripts of the given gene (Supplementary Fig 4). qPCR was done by using QuantiTect SyberGreen (Qiagen, #204143) and LightCycler II equipment (Roche). Standard ΔΔCt method was used to determine relative quantity to GAPDH. For further analyses GraphPad Prism 7 software was used.
# [2] = tested on: HEK293T cells; experiment: Western blot of PDZ-proteins, p53 and E6AP in stable cell lines; conditions: source data of Figure 6 E, stable HEK293T cell line, IRES control line about 1
# [3] = tested on: HUWE1; experiment: Label-free MS proteome of stable HEK293T cell lines; conditions: stable HEK293T cells compared to control cell line, n = 3
# Description: Proteins were identified by database searching using SequestHT (Thermo Fisher Scientific) with Proteome Discoverer 2.4 software (PD2.4, Thermo Fisher Scientific) on human FASTA database downloaded from SwissProt (reviewed, release 2020_11_27, 20304 entries, https://www.uniprot.org/). Precursor and fragment mass tolerances were set at 7 ppm and 0.6 Da respectively, and up to two missed cleavages were allowed. Oxidation (M, +15.995 Da) was set as variable modification, and Carbamidomethylation (C, +57.021 Da) as fixed modification. Peptides and proteins were filtered with a false discovery rate at 1%. Label-free quantification was based on the extracted ion chromatography intensity of the peptides. All samples were measured in technical triplicates. The measured extracted ion chromatogram (XIC) intensities were normalized based on median intensities of the entire dataset to correct minor loading differences. […] The detection threshold for enriched proteins in AP-MS experiments were analyzed above twofold enrichment with <0.01 P value. […] In case only a specific isoform of the detected protein contains a PBM, the identified peptide fragments were manually checked to check which isoform(s) were most likely detected. […]
# [4] = tested on: SCRIB; experiment: Western blot in stable HEK293T cell lines; conditions: for SCRIB relative protein level: source data of Figure 6 E, stable HEK293T cell line, IRES control line about 1
molecule,measurement,setting,value
B1,DLG1 relative mRNA level,[1]; replicate 1,1.01
same,GFP relative mRNA level,[1]; replicate 1,0.3883
same,MAGI1 relative mRNA level,[1]; replicate 1,1.0722
same,RPLP0 relative mRNA level,[1]; replicate 1,0.9236
same,SCRIB relative mRNA level,[1]; replicate 1,0.9974
same,SNTB2 relative mRNA level,[1]; replicate 1,1.021
same,SNX27 relative mRNA level,[1]; replicate 1,1.06
same,SYNJ2BP relative mRNA level,[1]; replicate 1,0.9318
same,TAX1BP3 relative mRNA level,[1]; replicate 1,0.9978
same,p53 relative mRNA level,[1]; replicate 1,1.205
same,DLG1 relative mRNA level,[1]; replicate 2,0.9789
same,GFP relative mRNA level,[1]; replicate 2,0.361
same,MAGI1 relative mRNA level,[1]; replicate 2,1.194
same,RPLP0 relative mRNA level,[1]; replicate 2,0.9077
same,SCRIB relative mRNA level,[1]; replicate 2,0.9906
same,SNTB2 relative mRNA level,[1]; replicate 2,1.145
same,SNX27 relative mRNA level,[1]; replicate 2,1.0167
same,SYNJ2BP relative mRNA level,[1]; replicate 2,1.042
same,TAX1BP3 relative mRNA level,[1]; replicate 2,1.009
same,p53 relative mRNA level,[1]; replicate 2,1.147
same,DLG1 relative mRNA level,[1]; replicate 3,0.8765
same,GFP relative mRNA level,[1]; replicate 3,0.3884
same,MAGI1 relative mRNA level,[1]; replicate 3,0.864
same,RPLP0 relative mRNA level,[1]; replicate 3,1.0145
same,SCRIB relative mRNA level,[1]; replicate 3,0.879
same,SNTB2 relative mRNA level,[1]; replicate 3,0.9516
same,SNX27 relative mRNA level,[1]; replicate 3,0.8492
same,SYNJ2BP relative mRNA level,[1]; replicate 3,0.8794
same,TAX1BP3 relative mRNA level,[1]; replicate 3,0.9092
same,p53 relative mRNA level,[1]; replicate 3,0.9937
same,HPV16 E6 relative mRNA level,[1]; replicate 1,0.5053
same,HPV16 E6 relative mRNA level,[1]; replicate 2,0.4889
same,HPV16 E6 relative mRNA level,[1]; replicate 3,0.4569
same,E6AP relative protein level,[2]; replicate 1,0.1109
same,MAGI1 relative protein level,[2]; replicate 1,1.104
same,SNX27 relative protein level,[2]; replicate 1,1.182
same,p53 relative protein level,[2]; replicate 1,0.0349
same,E6AP relative protein level,[2]; replicate 2,0.2467
same,MAGI1 relative protein level,[2]; replicate 2,0.7612
same,SNX27 relative protein level,[2]; replicate 2,0.5109
same,p53 relative protein level,[2]; replicate 2,0.03479
same,E6AP relative protein level,[2]; replicate 3,0.1353
same,MAGI1 relative protein level,[2]; replicate 3,0.6199
same,SNX27 relative protein level,[2]; replicate 3,0.8346
same,p53 relative protein level,[2]; replicate 3,0.01425
same,change of HUWE1 concentration,[3],decreased by threefold
same,SCRIB relative protein level,[4]; replicate 1,0.8205
same,SCRIB relative protein level,[4]; replicate 2,0.6696
same,SCRIB relative protein level,[4]; replicate 3,0.6225
same,decrease of SCRIB levels,"[4]; western blot, GAPDH normalized, stable HEK293T cells compared to control cells, n = 3",~ 30%
